In patent EP2170953B1 (AC Immune S.A., dated 2015):

B1: ACI-11-Ab-9 (antibody, V domains shown)
VH: QVQLQQSDAELVKPGASVKISCKVSGYTFTDHTIHWMKQRPEQGLEWIGYIYPRDGSTKYNEKFKGKATLTADKSSSTAYMQLNSLTSEDSAVYFCARDYGYAFDYWGQGTTLTVSS
VL: QAVVTQESALTTSPGGTVILTCRSSTGAVTTSNYANWVQEKPDHLFTGLIGGTSNRAPGVPVRFSGSLIGDKAALTITGAQTEDDAMYFCALWYSTHYVFGGGTKVTVL
notes: also called FG1F9E4
B2: ACI-12-Ab-11 (antibody, V domains shown)
VH: QVQLQQSDAELVKPGASVKISCKVSGYTFTDHTIHWMKQRPEQGLEWIGYIYPRDGSTKYNEKFKGKATLTADKSSSTAYMQLNSLTSEDSAVYFCARDYGYAFDYWGQGTTLTVSS
VL: QAVVTQESALTTSPGGTVILTCRSSTGAVTTSNYANWVQEKPDHLFTGLIGGTSNRAPGVPVRFSGSLIGDKAALTITGAQTEDDAMYFCALWYSTHYVFGGGTKVTVL
notes: also called FK2A6A6

What was measured:
[1] = molecular target: Aβ1-42 (low-molecular weight, HFIP-treated, Th-T aggregation assay); assay: cell-based or functional assay
Chain of Aβ1-42 (low-molecular weight, HFIP-treated, Th-T aggregation assay) (peptide, as listed by the source, form in doubt): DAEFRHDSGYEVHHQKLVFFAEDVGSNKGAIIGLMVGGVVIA

[2] = molecular target: pre-aggregated Aβ1-42 (Th-T disaggregation assay); assay: cell-based or functional assay
Chain of pre-aggregated Aβ1-42 (Th-T disaggregation assay) (peptide, as listed by the source, form in doubt): as above

Aβ1-42 library peptide 1 = assay: peptide library ELISA, Ab 10 µg/ml
Aβ1-42 library peptide 2 = assay: peptide library ELISA, Ab 10 µg/ml
Aβ1-42 library peptide 3 = assay: peptide library ELISA, Ab 10 µg/ml
Aβ1-42 library peptide 4 = assay: peptide library ELISA, Ab 10 µg/ml
Aβ1-42 library peptide 5 = assay: peptide library ELISA, Ab 10 µg/ml
Aβ1-42 library peptide 6 = assay: peptide library ELISA, Ab 10 µg/ml
Aβ1-42 library peptide 7 = assay: peptide library ELISA, Ab 10 µg/ml
Aβ1-42 library peptide 8 = assay: peptide library ELISA, Ab 10 µg/ml
Aβ1-42 library peptide 9 = assay: peptide library ELISA, Ab 10 µg/ml
[3] = molecular target: Aβ1-42 library peptide 10; assay: peptide library ELISA, Ab 10 µg/ml
[4] = molecular target: Aβ1-42 library peptide 11; assay: peptide library ELISA, Ab 10 µg/ml
[5] = molecular target: Aβ1-42 library peptide 12; assay: peptide library ELISA, Ab 10 µg/ml
[6] = molecular target: Aβ1-42 library peptide 13; assay: peptide library ELISA, Ab 10 µg/ml
[7] = molecular target: Aβ1-42 library peptide 14; assay: peptide library ELISA, Ab 10 µg/ml
[8] = molecular target: Aβ1-42 library peptide 15; assay: peptide library ELISA, Ab 10 µg/ml
[9] = molecular target: Aβ1-42 library peptide 16; assay: peptide library ELISA, Ab 10 µg/ml
[10] = molecular target: Aβ1-42 library peptide 17; assay: peptide library ELISA, Ab 10 µg/ml
[11] = molecular target: Aβ1-42 library peptide 18; assay: peptide library ELISA, Ab 10 µg/ml
[12] = molecular target: Aβ1-42 library peptide 19; assay: peptide library ELISA, Ab 10 µg/ml
[13] = molecular target: Aβ1-42 library peptide 20; assay: peptide library ELISA, Ab 10 µg/ml
[14] = molecular target: Aβ1-42 library peptide 21; assay: peptide library ELISA, Ab 10 µg/ml
[15] = molecular target: Aβ1-42 library peptide 22; assay: peptide library ELISA, Ab 10 µg/ml
[16] = molecular target: Aβ1-42 library peptide 23; assay: peptide library ELISA, Ab 10 µg/ml
[17] = molecular target: Aβ1-42 library peptide 24; assay: peptide library ELISA, Ab 10 µg/ml
[18] = molecular target: Aβ1-42 library peptide 25; assay: peptide library ELISA, Ab 10 µg/ml
[19] = molecular target: Aβ1-42 library peptide 26; assay: peptide library ELISA, Ab 10 µg/ml
[20] = molecular target: Aβ1-42 library peptide 27; assay: peptide library ELISA, Ab 10 µg/ml
[21] = molecular target: Aβ1-42 library peptide 28; assay: peptide library ELISA, Ab 10 µg/ml
[22] = molecular target: Aβ1-42 library peptide 29; assay: peptide library ELISA, Ab 10 µg/ml
[23] = molecular target: Aβ1-42 library peptide 30; assay: peptide library ELISA, Ab 10 µg/ml
[24] = molecular target: Aβ1-42 library peptide 31; assay: peptide library ELISA, Ab 10 µg/ml
[25] = molecular target: Aβ1-42 library peptide 32; assay: peptide library ELISA, Ab 10 µg/ml
[26] = molecular target: Aβ1-42 library peptide 33; assay: peptide library ELISA, Ab 10 µg/ml

Row | Binder | inhibition of Aβ1-42 aggregation (Th-T fluorescence), molar ratio 1:10 [1] | inhibition of Aβ1-42 aggregation (Th-T fluorescence), molar ratio 1:100 [1] | disaggregation of pre-aggregated Aβ1-42 (Th-T fluorescence), molar ratio 1:10 [2] | disaggregation of pre-aggregated Aβ1-42 (Th-T fluorescence), molar ratio 1:100 [2] | O.D. (Aβ1-42 library peptide 1) | O.D. (Aβ1-42 library peptide 2) | O.D. (Aβ1-42 library peptide 3) | O.D. (Aβ1-42 library peptide 4) | O.D. (Aβ1-42 library peptide 5) | O.D. (Aβ1-42 library peptide 6) | O.D. (Aβ1-42 library peptide 7) | O.D. (Aβ1-42 library peptide 8) | O.D. (Aβ1-42 library peptide 9) | O.D. [3] | O.D. [4] | O.D. [5] | O.D. [6] | O.D. [7] | O.D. [8] | O.D. [9] | further results
1 | B1 | 69% | 34% | 52% | 22% | 0.1 O.D. | 0.1 O.D. | 0.12 O.D. | 0.11 O.D. | 0.11 O.D. | 0.11 O.D. | 0.11 O.D. | 0.11 O.D. | 0.11 O.D. | 0.13 O.D. | 0.11 O.D. | 0.24 O.D. | 0.17 O.D. | 0.16 O.D. | 0.14 O.D. | 0.14 O.D. | O.D. [10]: 0.13 O.D.; O.D. [11]: 0.11 O.D.; O.D. [12]: 0.1 O.D.; O.D. [13]: 0.1 O.D.; O.D. [14]: 0.1 O.D.; O.D. [15]: 0.1 O.D.; O.D. [16]: 0.11 O.D.; O.D. [17]: 0.1 O.D.; O.D. [18]: 0.11 O.D.; O.D. [19]: 0.12 O.D.; O.D. [20]: 0.13 O.D.; O.D. [21]: 0.12 O.D.; O.D. [22]: 0.2 O.D.; O.D. [23]: 0.11 O.D.; O.D. [24]: 0.12 O.D.; O.D. [25]: 0.12 O.D.; O.D. [26]: 0.11 O.D.
2 | B2 | 66% | 30% | 54% | 18% | 0.1 O.D. | 0.1 O.D. | 0.11 O.D. | 0.1 O.D. | 0.1 O.D. | 0.1 O.D. | 0.1 O.D. | 0.1 O.D. | 0.1 O.D. | 0.1 O.D. | 0.11 O.D. | 0.21 O.D. | 0.15 O.D. | 0.12 O.D. | 0.1 O.D. | 0.14 O.D. | O.D. [10]: 0.12 O.D.; O.D. [11]: 0.1 O.D.; O.D. [12]: 0.1 O.D.; O.D. [13]: 0.1 O.D.; O.D. [14]: 0.09 O.D.; O.D. [15]: 0.1 O.D.; O.D. [16]: 0.1 O.D.; O.D. [17]: 0.1 O.D.; O.D. [18]: 0.11 O.D.; O.D. [19]: 0.12 O.D.; O.D. [20]: 0.12 O.D.; O.D. [21]: 0.11 O.D.; O.D. [22]: 0.11 O.D.; O.D. [23]: 0.11 O.D.; O.D. [24]: 0.11 O.D.; O.D. [25]: 0.11 O.D.; O.D. [26]: 0.11 O.D.
